B1: fusion protein H6FXtripb-scFv(CEA6) (scFv)
chain: MGSHHHHHHGSIQGRSPGTEPPTQKPKKIVNAKKDVVNTKMFEELKSRLDTLAQEVALLKEQQALQTGSQVQLQQSGAEVKKPGSSVKVSCKASGGTFSNSPINWLRQAPGQGLEWMGSIIPSFGTANYAQKFQGRLTITADESTSTAYMELSSLRSEDTAVYYCAGRSHNYELYYYYMDVWGQGTMVTVSSGGGGSGGGGSGGGGSDIQMTQSPSTLSASIGDRVTITCRASEGIYHWLAWYQQKPGKAPKLLIYKASSLASGAPSRFSGSGSGTDFTLTISSLQPDDFATYYCQQYSNYPLTFGGGTKLEIKRAAAEQKLISEEDLNGA
notes: About 38 kDa per monomer; Only its self-association was tested
B2: recombinant full length tetranectin (TN123) (other)
chain: GEPPTQKPKKIVNAKKDVVNTKMFEELKSRLDTLAQEVALLKEQQALQTVCLKGTKVHMKCFLAFTQTKTFHEASEDCISRGGTLSTPQTGSENDALYEYLRQSVGNEAEIWLGLNDMAAEGTWVDMTGARIAYKNWETEITAQPDGGKTENCAVLSGAANGKWFDKRCRDQLPYICQFGIV
notes: Found as a trimer in solution; also called rTN123
B3: recombinant tetranectin derivative TN3 (other)
chain: ALQTVCLKGTKVHMKCFLAFTQTKTFHEASEDCISRGGTLSTPQTGSENDALYEYLRQSVGNEAEIWLGLNDMAAEGTWVDMTGARIAYKNWETEITAQPDGGKTENCAVLSGAANGKWFDKRCRDQLPYICQFGIV
notes: Appeared monomeric
B4: recombinant tetranectin derivative TN23 (other)
chain: VVNTKMFEELKSRLDTLAQEVALLKEQQALQTVCLKGTKVHMKCFLAFTQTKTFHEASEDCISRGGTLSTPQTGSENDALYEYLRQSVGNEAEIWLGLNDMAAEGTWVDMTGARIAYKNWETEITAQPDGGKTENCAVLSGAANGKWFDKRCRDQLPYICQFGIV
notes: It is a trimer by gel filtration but appeared monomeric after DMSI cross-linking
B5: tetranectin fusion protein CIIH6FXTN123 (other)
chain: MVRANKRNEALRIESALLNKIAMLGTEKTAEGGSHHHHHHGSIEGRGEPPTQKPKKIVNAKKDVVNTKMFEELKSRLDTLAQEVALLKEQQALQTVCLKGTKVHMKCFLAFTQTKTFHEASEDCISRGGTLSTPQTGSENDALYEYLRQSVGNEAEIWLGLNDMAAEGTWVDMTGARIAYKNWETEITAQPDGGKTENCAVLSGAANGKWFDKRCRDQLPYICQFGIV
notes: Uncleaved fusion protein; Forms homo-trimers, and forms hetero-trimers with TN123; also called H6CIIFXTN123
B6: fusion protein H6FXTN12 (other)
chain: MGSHHHHHHGSIEGRGEPPTQKPKKIVNAKKDVVNTKMFEELKSRLDTLAQEVALLKEQQALQTV
notes: Uncleaved fusion protein; Formed homo-trimers upon cross-linking; also called H6-rTN12

Key:
[1] = biological target: the molecule itself; assay: DMSI cross-linking with rising DMSI at room temperature, SDS-PAGE; self-association
Description: After completion of the refolding procedure each column was washed with 300 ml buffer containing 0.5 M NaCl and 50 mM Tris-HCl pH 8 to wash away glutathione. The refolded fraction of each protein was then eluted from the NTA-agarose matrix by addition of 20 mM EDTA to the elution buffer. After addition of solid urea to achieve a final concentration of about 8 M to each protein sample and dilution or dialysis to reduce NaCl concentrations to below 5 mM, final purification of each correctly folded fusion protein product was then accomplished by ion exchange chromatography (S-Sepharose, Pharmacia, 1,6 (i.d.) by 90 centimeter column in a buffer containing 8 M urea, 5 mM Tris-HCl (from 1 M stock solution at pH 8) and 25 mM sodium acetate (from 1 M stock solution at pH 5), eluted at 2 ml/min). After dialysis against aqueous buffers (e.g. phosphate buffered saline) each pure and correctly refolded fusion protein was recovered in yields of 2-6 mg per litre of culture grown. […] Reactions were quenched by addition of 5 μl 3M Tris-HCl pH 9 and the samples analyzed by SDS-PAGE under reducing conditions (FIG. 21). Like tetranectin, the H6FXtripb-scFV-(CEA6) fusion protein, of approximately 38 kDa, is hereby shown to be a trimer in solution.

[2] = biological target: the molecule itself; assay: analytical gel filtration on Superose 12; self-association
Description: (§1) FIG. 9: Gel filtration analysis of TN123, TN23, and TN3 Analytical gel filtration of the recombinant tetranectin derivatives TN123, TN23, and TN3 were performed on a Superose 12 HR 10/30 column (Pharmacia, Sweden) with a total volume of 25 ml in 100 mM NaCl and 50 mM Tris-HCl pH 8 and a flow rate of 0.2 ml/min. Vertical bars at peak maxima identify elution profiles for each of the three proteins.
(§2) Analytical gelfiltration of the recombinant tetranectin derivatives TN123, TN3, and TN23 (FIG. 9) were performed on a Superose 12 HR 10/30 column (Pharmacia, Sweden) with a total volume of 25 ml in 100 mM NaCl and 50 mM Tris-HCl pH 8 and a flow rate of 0.2 ml/min. The Kₐᵥ value is defined by, Kₐᵥ=(Ve−Vo)/(Vc−Vo).

[3] = biological target: the molecule itself; assay: analytical gel filtration on Superose 12
Description: as §1, §2

[4] = biological target: B2; assay: DMSI cross-linking of the mixture with and without heat treatment at 70 C, SDS-PAGE
Description: (§3) The recombinant tetranectin derivatives TN123, TN3, and TN23, together with the fusion proteins CIIH6FXTN123 and H6FXTN12 or mixtures of these derivatives at 1 mg/ml concentrations in cross-linking buffer (0.1 M Sodium borate, pH 9.1) were incubated with dimethylsuberimidate (DMSI, Sigma). 10 μl aliquots of protein solution were incubated with 1 μl aliquots of DMSI stock solution (20 mg/ml in cross-linking buffer) for 30 minutes at 25° C. before addition of 2 μl quenching buffer (3 M Tris-HCl, pH 9). Subunit exchange between preformed homo-oligomers was induced by subjecting protein mixtures to heat shock treatment. Five μl aliquots of each protein solution (1 mg/ml stocks) were mixed at 0° C. in standard polypropylene microcentrifuge tubes, transferred to a water bath at 70° C. for the time spans indicated, and then further incubated for 15 minutes at 25° C. before reaction with DMSI.

[5] = biological target: the molecule itself; assay: DMSI cross-linking and SDS-PAGE; self-association
Description: as §3
Subunit exchange could be induced by incubating the protein mixture at 70° C. for 15 seconds or longer before cooling to room temperature and addition of DMSI. […] It should be noted, that molecular weight markers have only been included on the SDS-PAGE gels for crude calibration and orientation of the gels.

[6] = biological target: B2; assay: DMSI cross-linking and SDS-PAGE after subunit exchange at 70 C for 15 s or longer; no exchange after 16 h at room temperature
Description: FIG. 10: Cross-linking analysis of TN123 and CIIH6FXTN123. Samples of TN123, CIIH6FXTN123 and mixtures of both were incubated with DMSI and analyzed by SDS-PAGE (12% gel). Before addition of DMSI, protein mixtures were subjected to subunit exchange by incubation at 70° C. for varying length of time. Protein marker of 94, 68, 43 and 30 kDa, top to bottom (lane M). CIIH6FXTN123 fusion protein (lane 1). TN123 (lane 2). DMSI treated CIIH6FXTN123 (lanes 3 and 6). DMSI-treated TN123 (lane 4). Identical samples of DMSI treated mixtures of CIIH6FXTN123 and TN123 without heat exposure (lanes 5 and 7) and heat treated for 2.5 sec, 15 sec, 2.5 min. and 10 min., respectively, before treatment with DMSI (lanes 8-11).
as §3, with “Five μl aliquots of each protein solution (1 mg/ml stocks) were mixed at 0° C. in standard polypropylene microcentrifuge tubes, transferred to a water bath at 70° C. for the time spans indicated, and then further incubated for 15 minutes at 25° C. before reaction with DMSI.” left out

[7] = biological target: B2; assay: DMSI cross-linking and SDS-PAGE after heat treatment at 70 C
Description: as §3

Binder: B1
- binding result [1]: binds

Binder: B2
- binding result [2]: binds

Binder: B3
- binding result [3]: no binding
- binding result [4]: no binding

Binder: B4
- binding result [2]: binds

Binder: B5
- binding result [5]: binds
- binding result [6]: binds

Binder: B6
- binding result [5]: binds
- binding result [7]: binds

Source: patent publication US20070154901A1 (ANAPHORE, published 2007)
